In patent publication US20230331828A1 (published 2023):

B1: h2731 (antibody, V domains shown)
VH: EVQLLESGGGLVQPGGSLRLSCAASGFTFSNYGMSWVRQAPGKGLEWVASIRSGSGRTYYSDNVKGRFTISRDNSKNTLYLQMNSLRAEDTAVYYCVRYDHYSGSSDYWGQGTLVTVSS
VL: DVVMTQSPLSLPVTLGEPASISCKSSQSLLDYDGKTYLNWLLQKPGQSPQRLIYRVTNRDTGVPDRFSGSGSGTDFTLKISRVEAEDVGVYYCWQGTHFPRSFGQGTKVEIK
B2: h2831 (antibody, V domains shown)
VH: EVQLLESGGGLVQPGGSLRLSCAASGFTFSNFGMSWVRQAPGKGLEWVASVRSGSGRTYYSDNVKGRFTISRDNSKNTLYLQMNSLRAEDTAVYYCVRYDHYSGTSDYWGQGTLVTVSS
VL: DVVMTQSPLSLPVTLGEPASISCKSSQSLLDYDGKTYLNWLLQKPGQSPQRLIYRVTNRDTGVPDRFSGSGSGTDFTLKISRVEAEDVGVYYCWQGTHFPRSFGQGTKVEIK
B3: h2931 (antibody, V domains shown)
VH: EVQLLESGGGLVQPGGSLRLSCAASGFTFSNFGMSWVRQAPGKGLEWVASVRSGSGRTYYSDNVKGRFTISRDNSKNTLYLQMNSLRAEDTAVYYCVRYDHYTGTSDYWGQGTLVTVSS
VL: DVVMTQSPLSLPVTLGEPASISCKSSQSLLDYDGKTYLNWLLQKPGQSPQRLIYRVTNRDTGVPDRFSGSGSGTDFTLKISRVEAEDVGVYYCWQGTHFPRSFGQGTKVEIK
B4: h2726 (antibody, V domains shown)
VH: EVQLLESGGGLVQPGGSLRLSCAASGFTFSNYGMSWVRQAPGKGLEWVASIRSGSGRTYYSDNVKGRFTISRDNSKNTLYLQMNSLRAEDTAVYYCVRYDHYSGSSDYWGQGTLVTVSS
VL: DVVMTQSPLSLPVTPGEPASISCKSSQSLLDYDGKTYLNWLLQKPGQSPQRLIYKVSNRDSGVPDRFSGSGSGTDFTLKISRVEAEDVGVYYCWQGTHFPRTFGQGTKVEIK

What was measured:
[1] = molecular target: aggregated Aβ42 (heterogeneous Aβ 42 aggregate mixture); test: competition ELISA; FIG 20A
[2] = molecular target: aggregated Aβ42 (heterogeneous Aβ 42 aggregate mixture); test: competition ELISA; FIG 5A; competition with HBP biotin
[3] = molecular target: aggregated Aβ42 (heterogeneous Aβ 42 aggregate mixture); test: competition ELISA; FIG 20B
[4] = molecular target: aggregated Aβ42 (heterogeneous Aβ 42 aggregate mixture); test: competition ELISA; FIG 5B; competition with HBP biotin

Chain of aggregated Aβ42 (heterogeneous Aβ 42 aggregate mixture) (P05067 672-713): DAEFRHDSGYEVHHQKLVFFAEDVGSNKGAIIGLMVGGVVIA

Binder | IC50 [1] [µg/mL] | IC50 [2] [µg/mL] | IC50 [3] [µg/mL] | IC50 [4] [µg/mL]
B1 | 5 | 4.76 |  | 
B2 |  |  | 9.9 | 9.02
B3 |  | 6.27 |  | 
B4 |  |  | 9 | 8.41
